Experimental data from PMC11694665, “Open and closed structures of L-arginine oxidase by cryo-electron microscopy and X-ray crystallography” (Journal of Biochemistry, 2024).

T1: PT-AROD (L-arginine oxidase from Pseudomonas sp. TPU 7192) (Pseudomonas putida, UniProt A0A177SH44)
T1 construct: gene AYO28_23740; full length, recombinant in E. coli BL21(DE3) from pET-15b; homooctamer (D4), one FAD per monomer; 4632 residues modelled in octamer (579 per chain)
T1 sequence (A0A177SH44 1-589): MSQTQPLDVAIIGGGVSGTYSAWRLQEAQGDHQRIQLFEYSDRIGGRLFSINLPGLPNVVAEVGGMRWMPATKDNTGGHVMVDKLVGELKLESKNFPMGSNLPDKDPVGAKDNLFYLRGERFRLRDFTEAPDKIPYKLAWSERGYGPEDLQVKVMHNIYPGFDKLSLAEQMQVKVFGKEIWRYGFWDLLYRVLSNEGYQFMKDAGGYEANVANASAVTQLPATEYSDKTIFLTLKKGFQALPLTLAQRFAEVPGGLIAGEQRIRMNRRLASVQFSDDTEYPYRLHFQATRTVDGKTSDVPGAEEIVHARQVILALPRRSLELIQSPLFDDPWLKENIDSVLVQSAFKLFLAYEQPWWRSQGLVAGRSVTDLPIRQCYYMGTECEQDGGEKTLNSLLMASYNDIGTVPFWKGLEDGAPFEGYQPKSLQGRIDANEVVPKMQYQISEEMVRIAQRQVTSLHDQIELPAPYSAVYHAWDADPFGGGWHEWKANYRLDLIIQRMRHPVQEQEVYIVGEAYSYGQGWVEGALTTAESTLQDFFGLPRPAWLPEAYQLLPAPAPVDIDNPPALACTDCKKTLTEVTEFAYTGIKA

B1: PT-AROD (L-arginine oxidase from Pseudomonas sp. TPU 7192) (Pseudomonas putida) (protein)
chain: T1 sequence (A0A177SH44 1-589)
notes: full length, recombinant in E. coli BL21(DE3) from pET-15b; homooctamer (D4), one FAD per monomer; 4632 residues modelled in octamer (579 per chain)

Experiments:
[1] = biological target: T1, PT-AROD (L-arginine oxidase from Pseudomonas sp. TPU 7192); assay: cryo-EM ([…] Å) and X-ray crystallography ([…] Å); type: binding; conditions: one FAD per monomer; copurified, 0.2 μM FAD in purification buffers
[2] = biological target: L-arginine oxidase from Pseudomonas sp. TPU 7192 (Pseudomonas sp. TPU 7192); assay: mass photometry; 0.1 mg/ml in SEC buffer (20 mM HEPES pH 8.0, 50 mM NaCl), on a glass coverslip, 60 s, three repeats; molecular weight in solution
[3] = biological target: L-arginine oxidase from Pseudomonas sp. TPU 7192 (Pseudomonas sp. TPU 7192); assay: cryo-EM structure; single-particle analysis, 2.5 mg/ml protein in 20 mM HEPES (pH 8.0), 50 mM NaCl, with bound FAD; D4 symmetry; octamer
[4] = biological target: L-arginine oxidase from Pseudomonas sp. TPU 7192 (Pseudomonas sp. TPU 7192); assay: crystal structure; crystals grown at 20°C from 10 mg/ml protein, 20% w/v PEG 3350, 0.2 M potassium citrate tribasic (pH 8.3); four molecules in the asymmetric unit, octamer made by a symmetry mate
N=C(N)NCCC[C@H](N)C(=O)O = tested on: T2, N=C(N)NCCC[C@H](N)C(=O)O; assay: peroxidase-coupled colourimetric assay (4-aminoantipyrine/TOOS), non-linear regression; type: biochemical, Pseudomonas putida; conditions: 100 mM Tris-HCl pH 7.0, 37 °C, substrate 0-2.5 mM
T2 construct: full length, recombinant in E. coli BL21(DE3) from pET-15b; homooctamer (D4), one FAD per monomer; 4632 residues modelled in octamer (579 per chain)
Source text: (§1) peroxidase-coupled colourimetric assay (4-aminoantipyrine/TOOS), non-linear regression on PT-AROD (L-arginine oxidase from Pseudomonas sp. TPU 7192)

NCCCC[C@H](N)C(=O)O = tested on: T3, NCCCC[C@H](N)C(=O)O; assay: as above; type: biochemical, Pseudomonas putida; conditions: 100 mM Tris-HCl pH 7.0, 37 °C, substrate 0-10 mM
T3 construct: full length, recombinant in E. coli BL21(DE3) from pET-15b; homooctamer (D4), one FAD per monomer; 4632 residues modelled in octamer (579 per chain)
Source text: as §1

[5] = substrate: N=C(N)NCCC[C@H](N)C(=O)O; assay: as above; type: biochemical, Pseudomonas putida; conditions: 100 mM Tris-HCl pH 7.0, 37 °C, substrate 0-2.5 mM
Source text: as §1

[6] = substrate: NCCCC[C@H](N)C(=O)O; assay: as above; type: biochemical, Pseudomonas putida; conditions: 100 mM Tris-HCl pH 7.0, 37 °C, substrate 0-10 mM
Source text: as §1

Row | Molecule | Km (N=C(N)NCCC[C@H](N)C(=O)O) [µM] | kcat (N=C(N)NCCC[C@H](N)C(=O)O) [s⁻¹] | kcat/Km (N=C(N)NCCC[C@H](N)C(=O)O) [M⁻¹ s⁻¹] | Km (NCCCC[C@H](N)C(=O)O) [µM] | kcat (NCCCC[C@H](N)C(=O)O) [s⁻¹] | kcat/Km (NCCCC[C@H](N)C(=O)O) [M⁻¹ s⁻¹] | other results
1 | Cc1cc2nc3c(=O)[nH]c(=O)nc-3n(C[C@H](O)[C@H](O)[C@H](O)COP(=O)(O)OP(=O)(O)OC[C@H]3O[C@@H](n4cnc5c(N)ncnc54)[C@H](O)[C@@H]3O)c2cc1C [FAD] | – | – | – | – | – | – | cryo-EM (2.3 Å) and X-ray crystallography (3.4 Å) [1]: We obtained a cryo-EM map of PT-AROD in complex with FAD
2 | L-arginine oxidase from Pseudomonas sp. TPU 7192 (enzyme) | – | – | – | – | – | – | stoichiometry N [2]: 8; stoichiometry N [3]: 8; stoichiometry N [4]: 8
3 | PT-AROD (L-arginine oxidase from Pseudomonas sp. TPU 7192) (Pseudomonas putida; E486A) | 190 | 3.5 | 18000 | 1200 | 1.1 | 920 | –
4 | PT-AROD (L-arginine oxidase from Pseudomonas sp. TPU 7192) (Pseudomonas putida; Q343E) | 1700 | 10.4 | 6100 | 6900 | 0.5 | 72 | –
5 | B1 | – | – | – | – | – | – | Km [5]: 480 µM; kcat [5]: 6.2 s⁻¹; kcat/Km [5]: 13000 M⁻¹ s⁻¹; Km [6]: 20000 µM; kcat [6]: 2.7 s⁻¹; kcat/Km [6]: 140 M⁻¹ s⁻¹
